Measurements taken from patent US20260174875A1 (Novo Nordisk A/S, priority 2023, published 2026).
Numbered stars: 1 amine (or outer) side, 2 acyl side, 3 side chain; on linkers, the order of the positions; unused ones are H or OH. Square brackets hold non-standard residues; d marks the D form. Side chains are listed from the residue outwards. * marks the point of attachment. C20 diacid = O=C(O)CCCCCCCCCCCCCCCCCCC(=O)*; C18 diacid = O=C(O)CCCCCCCCCCCCCCCCC(=O)*; γGlu = O=C(O)[C@H](CCC(=O)[*:2])N[*:1]; AEEA = NCCOCCOCC(=O)O; Aib = CC(C)(N)C(=O)O

T1: human amylin-3(a) receptor (human, UniProt P30988 25-474; O60896 24-148)
T1 sequence (looked up) 1: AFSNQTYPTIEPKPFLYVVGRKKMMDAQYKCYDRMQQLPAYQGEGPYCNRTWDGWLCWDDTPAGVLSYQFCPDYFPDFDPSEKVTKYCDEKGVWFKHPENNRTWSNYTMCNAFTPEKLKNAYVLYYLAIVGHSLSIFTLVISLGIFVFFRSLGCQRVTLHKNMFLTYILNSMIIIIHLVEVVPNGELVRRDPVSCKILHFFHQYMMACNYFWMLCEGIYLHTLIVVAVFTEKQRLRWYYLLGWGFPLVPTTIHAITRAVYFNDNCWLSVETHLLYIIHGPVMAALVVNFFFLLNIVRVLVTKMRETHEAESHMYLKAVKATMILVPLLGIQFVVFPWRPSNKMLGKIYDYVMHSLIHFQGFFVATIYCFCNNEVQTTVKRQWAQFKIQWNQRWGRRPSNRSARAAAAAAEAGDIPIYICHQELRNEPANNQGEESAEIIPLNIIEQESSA
T1 sequence (looked up) 2: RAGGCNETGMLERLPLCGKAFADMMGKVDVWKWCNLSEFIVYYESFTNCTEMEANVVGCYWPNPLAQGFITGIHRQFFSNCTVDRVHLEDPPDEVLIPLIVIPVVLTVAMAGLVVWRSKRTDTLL

T2: human GIP receptor (human, UniProt P48546 22-466)
T2 sequence (looked up): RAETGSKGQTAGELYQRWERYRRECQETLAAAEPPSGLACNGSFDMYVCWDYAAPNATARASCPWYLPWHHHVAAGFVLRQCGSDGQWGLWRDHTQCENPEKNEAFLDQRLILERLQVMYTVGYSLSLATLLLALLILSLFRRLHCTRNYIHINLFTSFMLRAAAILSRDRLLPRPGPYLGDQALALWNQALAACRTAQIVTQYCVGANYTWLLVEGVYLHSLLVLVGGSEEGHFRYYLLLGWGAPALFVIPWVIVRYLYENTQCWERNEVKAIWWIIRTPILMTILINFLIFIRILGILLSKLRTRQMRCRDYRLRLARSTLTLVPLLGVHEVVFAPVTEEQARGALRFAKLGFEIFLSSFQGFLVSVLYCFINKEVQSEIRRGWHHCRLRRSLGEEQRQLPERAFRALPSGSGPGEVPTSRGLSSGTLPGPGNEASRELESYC


Legend:
Experiment in all cases: cell-based or functional assay
[1] = biological target: T1, human amylin-3(a) receptor
human GLP-1 receptor [2] = biological target: T3, human GLP-1 receptor (human, UniProt P43220 24-463)
human GIP receptor [3] = biological target: T2, human GIP receptor
[4] = biological target: T1, human amylin-3(a) receptor; remark: listed apart in the source
human GLP-1 receptor [5] = biological target: T3, human GLP-1 receptor; remark: listed apart in the source
human GIP receptor [6] = biological target: T2, human GIP receptor; remark: listed apart in the source

Binder	hAMYR3 Potency, 1% HSA, EC50 [pM] [1]	hGLP-1R Potency, 1% HSA, EC50 [pM] (human GLP-1 receptor [2])	hGIPR Potency, 1% HSA, EC50 [pM] (human GIP receptor [3])	hAMYR3 Potency, no HSA, EC50 [pM] [4]	hGLP-1R Potency, no HSA, EC50 [pM] (human GLP-1 receptor [5])	hGIPR Potency, no HSA, EC50 [pM] (human GIP receptor [6])
Compound 70 (peptide) peptide: H[Aib]HGTFTSDYSILLEEQAAREFIEWLLAGGPSRGAPPPSGGGEASELSTAALGRLSAELHK([AEEA-AEEA-γGlu-C18 diacid])LATLPRTETGSGSP-NH2	59.4 pM	18.4 pM	19.1 pM	4.53 pM	3.48 pM	5.89 pM
Compound 71 (peptide) peptide: H[Aib]HGTFTSDYSILLEEQAAREFIEWLLAGGPSRGAPPPSGGGEASHLSTQTQGRLSAELHK([AEEA-AEEA-γGlu-C18 diacid])LATLPRTETGSGSP-NH2	274 pM	18.4 pM	9.28 pM	8.66 pM	3.34 pM	2.77 pM
Compound 73 (peptide) peptide: H[Aib]HGTFTSDYSILLEEQAAREFIEWLLAGGPSK([AEEA-AEEA-γGlu-C18 diacid])GEASQLSTAALGRLSAELHRLATLPRTETGSGSP-NH2	61.5 pM	54.1 pM	96.5 pM	1.99 pM	4.55 pM	4.98 pM
Compound 77 (peptide) peptide: Y[Aib]EGTFTSDYSILLEEQAAREFIEWLLAGGPSSGAGQAPGQAPLASHLSTAQTQRLSAELHK([AEEA-AEEA-γGlu-C20 diacid])LATLPRTETGSGSP-NH2	382 pM	51.4 pM	13.4 pM	3.13 pM	19.7 pM	2.53 pM

Other lines, results leading:

hAMYR3 Potency, 1% HSA, EC50 [pM] [1]	hGLP-1R Potency, 1% HSA, EC50 [pM] (human GLP-1 receptor [2])	hGIPR Potency, 1% HSA, EC50 [pM] (human GIP receptor [3])	hAMYR3 Potency, no HSA, EC50 [pM] [4]	hGLP-1R Potency, no HSA, EC50 [pM] (human GLP-1 receptor [5])	hGIPR Potency, no HSA, EC50 [pM] (human GIP receptor [6])	Binder
430 pM	63.6 pM	11.1 pM	3.11 pM	19.9 pM	2.82 pM	Compound 76 (peptide) peptide: Y[Aib]EGTFTSDYSILLEEQAAREFIEWLLAGGPSSGAGQAPGQAPGASHLSTAQTQRLSAELHRLATLPK([AEEA-AEEA-γGlu-C20 diacid])TETGSGSP-NH2
110 pM	25.2 pM	11.9 pM	2.49 pM	3.66 pM	2.65 pM	Compound 75 (peptide) peptide: H[Aib]HGTFTSDYSILLEEQAAREFIEWLLAGGPSGGEASHLSTAQTQRLSAELHK([AEEA-AEEA-γGlu-C18 diacid])LATLPRTETGSGSP-NH2
134 pM	141 pM	18.7 pM	2.73 pM	29.8 pM	2.51 pM	Compound 74 (peptide) peptide: Y[Aib]EGTFTSDYSILLEEQAAREFIEWLLAGGPSGGEASHLSTAQTQRLSAELHK([AEEA-AEEA-γGlu-C18 diacid])LATLPRTETGSGSP-NH2
589 pM	41.7 pM	9.79 pM	6.57 pM	13.1 pM	2.12 pM	Compound 72 (peptide) peptide: Y[Aib]EGTFTSDYSILLEEQAAREFIEWLLAGGPSRGAPPPSGGGEASHLSTQTQGRLSAELHK([AEEA-AEEA-γGlu-C18 diacid])LATLPRTETGSGSP-NH2
